Assay [1] addresses Parkin WT (pSer 65) (human) (UniProt O60260).
The target of assay [2] is Human wild type Parkin 1-465 (human) (UniProt O60260).
Another assay has as its target Parkin [F146A] (human) (UniProt O60260).
In another assay the target is Parkin [W403A] (human) (UniProt O60260).

From article PMC10921019 come the findings set out here.

On to “p-Ubiquitin-His (pSer65-ubiquitin-6His) (natural protein)”, for which, in assay [1], the Ub-K formation %, MALDI-TOF discharge assay of p-Parkin without or with p-Ub-His (100, 500, 2500 nM) (% Ub-K formation) was 78 and the residual Ub % after 10 min, MALDI-TOF auto-ubiquitylation assay of p-Parkin without or with p-Ub-His (100, 500, 2500 nM) (% residual Ub) worked out at 31.5. In assay [2], this substance came in with an EC50 of p-Ub-His for the activation of Parkin, MALDI-TOF auto-ubiquitylation assay (500 nM Parkin, 0.05-5 μM p-Ub-His, 30 min) of 2000 nM and an EC50 of p-Ub-His for the activation of Parkin, MALDI-TOF discharge assay (500 nM Parkin, 0.05-5 μM p-Ub-His, 30 min) of 1400 nM. For the same substance, in the assay with Parkin [F146A] (human), the EC50 of p-Ub-His for the activation of Parkin, MALDI-TOF auto-ubiquitylation assay (500 nM Parkin, 0.05-5 μM p-Ub-His, 30 min) amounted to 400 nM and the EC50 of p-Ub-His for the activation of Parkin, MALDI-TOF discharge assay (500 nM Parkin, 0.05-5 μM p-Ub-His, 30 min) is 600 nM. In the assay with Parkin [W403A] (human), this substance gave an EC50 of p-Ub-His for the activation of Parkin, MALDI-TOF auto-ubiquitylation assay (500 nM Parkin, 0.05-5 μM p-Ub-His, 30 min) of 200 nM and an EC50 of p-Ub-His for the activation of Parkin, MALDI-TOF discharge assay (500 nM Parkin, 0.05-5 μM p-Ub-His, 30 min) of 500 nM.
